From patent US20260265396A1 (BIOARCTIC, published 2026)

T1: chimeric TfR1 consisting of human apical domain grafted on mouse TfR1 ectodomain (SEQ ID NO:57) (human/mouse chimera)
T1 construct: His-tagged ELISA coat; also called h/m apical domain chimera
T1 chain: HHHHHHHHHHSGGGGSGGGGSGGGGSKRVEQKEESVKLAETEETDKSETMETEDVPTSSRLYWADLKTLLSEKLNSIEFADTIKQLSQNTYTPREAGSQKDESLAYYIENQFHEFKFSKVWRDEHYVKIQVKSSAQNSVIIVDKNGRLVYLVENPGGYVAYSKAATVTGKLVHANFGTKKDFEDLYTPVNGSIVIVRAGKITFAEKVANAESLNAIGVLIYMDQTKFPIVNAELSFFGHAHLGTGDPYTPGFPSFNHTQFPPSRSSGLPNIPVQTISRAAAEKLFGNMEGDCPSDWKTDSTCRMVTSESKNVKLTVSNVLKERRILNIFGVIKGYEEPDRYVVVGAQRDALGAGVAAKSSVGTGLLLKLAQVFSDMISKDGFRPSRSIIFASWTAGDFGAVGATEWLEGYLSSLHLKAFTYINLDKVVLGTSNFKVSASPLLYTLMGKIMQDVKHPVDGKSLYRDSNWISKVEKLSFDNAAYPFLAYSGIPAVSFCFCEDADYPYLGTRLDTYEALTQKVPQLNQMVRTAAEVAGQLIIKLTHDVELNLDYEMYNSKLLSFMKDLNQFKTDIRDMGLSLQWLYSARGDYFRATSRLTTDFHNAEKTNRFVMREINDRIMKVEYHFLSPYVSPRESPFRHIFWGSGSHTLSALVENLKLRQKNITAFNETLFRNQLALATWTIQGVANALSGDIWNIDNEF


Legend:
[1] = molecular target: T1, chimeric TfR1 consisting of human …; experiment: indirect ELISA, plate coated with 1 ug/ml h/m apical domain chimera (axis labelled TfR (ng/ml)) [C]
Experimental: The coated plates were then blocked. Dilution series of mouse IgG of the analyzed antibodies were prepared in PBS and incubated on the ELISA plates. Unbound antibodies were then washed off before incubating wells with a HRP-conjugated secondary, anti-mouse-IgG for 1 h. Plates were then washed again before addition of HRP substrate TMB for development and detection of antibody binding to the wells. TMB development was stopped by adding 0.5 M H₂SO₄ to the wells and ELISA responses measured as the OD at 450 nm in an ELISA plate reader.

[2] = molecular target: T2, human TfR1, recombinant, construct not stated for the experiment (human, UniProt P02786 89-760, limits assumed); experiment: indirect ELISA, plate coated with 1 ug/ml recombinant hTfR1 ectodomain, Fab 1:3 dilution series, anti-human IgG F(ab')2-HRP [lower panel hTfR1]
T2 construct: Biotinylated in the binning and scFv-Fc BLI experiments; also called hTfR1; biotinylated hTfR1
T2 sequence (P02786 89-760 limits assumed): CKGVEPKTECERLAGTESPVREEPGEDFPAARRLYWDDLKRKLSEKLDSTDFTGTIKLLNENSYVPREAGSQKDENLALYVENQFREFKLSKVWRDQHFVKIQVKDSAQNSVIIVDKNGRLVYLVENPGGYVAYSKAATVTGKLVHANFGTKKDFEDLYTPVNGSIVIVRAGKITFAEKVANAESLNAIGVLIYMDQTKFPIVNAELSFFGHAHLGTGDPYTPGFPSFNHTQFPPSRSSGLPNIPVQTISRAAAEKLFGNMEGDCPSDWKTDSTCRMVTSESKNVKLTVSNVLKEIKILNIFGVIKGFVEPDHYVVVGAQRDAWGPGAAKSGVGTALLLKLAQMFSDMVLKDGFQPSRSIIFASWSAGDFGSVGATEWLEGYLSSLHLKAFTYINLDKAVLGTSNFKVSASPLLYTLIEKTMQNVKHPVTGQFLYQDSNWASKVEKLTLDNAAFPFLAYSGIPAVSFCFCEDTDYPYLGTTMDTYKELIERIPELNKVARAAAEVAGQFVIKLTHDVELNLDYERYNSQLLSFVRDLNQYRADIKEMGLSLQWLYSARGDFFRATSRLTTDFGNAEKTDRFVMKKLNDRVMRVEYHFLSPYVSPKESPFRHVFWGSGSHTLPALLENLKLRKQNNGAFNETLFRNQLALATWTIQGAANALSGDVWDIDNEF

binding result [1] | EC50 (read off the curve) [2] | Binder
no binding (tested: about 650 ng/ml) | – | mouse monoclonal antibody 26D3 (antibody, mouse IgG2a, V domains shown) VH: EVQLQQFGVELVKPGASVKISCKASGYIFTDYNMDWVKQSHGKSLEWIGDINPDYDTTSYNEKFKGKATLTVDKSSSTAYMELRSLTSEDTAVYYCARGGYSGSSYYHPMDYWGQGTSVTVSS VL: DIVMSQSPSSLAVSVGEKITMSCKSSQSLLYSTNQKNYLAWYQQKPGQSPELLIYWASTRESGVPDRFTGSGSGTDFTLTISNVRAEDLAVYYCQQYFIYPRTFGGGTKLEIK
– | ~500 nM | h26D3 Fab (humanized 26D3) (Fab, V domains shown, His-tagged Fab from ExpiCHO cells) VH: EVQLVQSGAEVKKPGSSVKVSCKASGYIFTDYNMDWVRQAPGQGLEWIGDINPDYDTTSYNEKFKGRATLTVDKSTSTAYMELSSLRSEDTAVYYCARGGYSGSSYYHPMDYWGQGTLVTVSS VL: DIQMTQSPSSVSASVGDRVTITCKSSQSLLYSTNQKNYLAWYQQKPGKAPKLLIYWASTRESGVPSRFSGSGSGTDFTLTISSLQPEDFATYYCQQYFIYPRTFGQGTKVEIK
